B1: SAGA-associated factor 29 (Homo sapiens), Q96ES7 (parent)
chain: MALVSADSRIAELLTELHQLIKQTQEERSRSEHNLVNIQKTHERMQTENKISPYYRTKLRGLYTTAKADAEAECNILRKALDKIAEIKSLLEERRIAAKIAGLYNDSEPPRKTMRRGVLMTLLQQSAMTLPLWIGKPGDKPPPLCGAIPASGDYVARPGDKVAARVKAVDGDEQWILAEVVSYSHATNKYEVDDIDEEGKERHTLSRRRVIPLPQWKANPETDPEALFQKEQLVLALYPQTTCFYRALIHAPPQRPQDDYSVLFEDTSYADGYSPPLNVAQRYVVACKEPKKK

Variants of: B1
Conditions: with h31_human H3C1, P68431

Variant | effect of a mutation on the interaction
MALVSADSRIAELLTELHQLIKQTQEERSRSEHNLVNIQKTHERMQTENKISPYYRTKLRGLYTTAKADAEAECNILRKALDKIAEIKSLLEERRIAAKIAGLYNDSEPPRKTMRRGVLMTLLQQSAMTLPLWIGKPGDKPPPLCGAIPASGDYVARPGDKVAARVKAVDGDEQWILAEVVSYSHATNKYEVDAIDEEGKERHTLSRRRVIPLPQWKANPETDPEALFQKEQLVLALYPQTTCFYRALIHAPPQRPQDDYSVLFEDTSYADGYSPPLNVAQRYVVACKEPKKK [D194A] | disrupting interaction

Variants of: B1
Conditions: with h31_human H3C1, P68431
Remark: another data set of the same source

Variant | effect of a mutation on the interaction
MALVSADSRIAELLTELHQLIKQTQEERSRSEHNLVNIQKTHERMQTENKISPYYRTKLRGLYTTAKADAEAECNILRKALDKIAEIKSLLEERRIAAKIAGLYNDSEPPRKTMRRGVLMTLLQQSAMTLPLWIGKPGDKPPPLCGAIPASGDYVARPGDKVAARVKAVDGDEQWILAEVVSYSHATNKYEVDDIAEEGKERHTLSRRRVIPLPQWKANPETDPEALFQKEQLVLALYPQTTCFYRALIHAPPQRPQDDYSVLFEDTSYADGYSPPLNVAQRYVVACKEPKKK [D196A] | decreasing interaction

Variants of: B1
Conditions: with h31_human H3C1, P68431
Remark: another data set of the same source

Variant | effect of a mutation on the interaction
MALVSADSRIAELLTELHQLIKQTQEERSRSEHNLVNIQKTHERMQTENKISPYYRTKLRGLYTTAKADAEAECNILRKALDKIAEIKSLLEERRIAAKIAGLYNDSEPPRKTMRRGVLMTLLQQSAMTLPLWIGKPGDKPPPLCGAIPASGDYVARPGDKVAARVKAVDGDEQWILAEVVSYSHATNKYEVDDIAEEGKERHTLSRRRVIPLPQWKANPETDPEALFQKEQLVLALYPQTTCFYRALIHAPPQRPQDDYSVLFEDTSYADGYSPPLNVAQRYVVACKEPKKK [D196A] | disrupting interaction

Variants of: B1
Conditions: with h31_human H3C1, P68431
Remark: another data set of the same source

Variant | effect of a mutation on the interaction
MALVSADSRIAELLTELHQLIKQTQEERSRSEHNLVNIQKTHERMQTENKISPYYRTKLRGLYTTAKADAEAECNILRKALDKIAEIKSLLEERRIAAKIAGLYNDSEPPRKTMRRGVLMTLLQQSAMTLPLWIGKPGDKPPPLCGAIPASGDYVARPGDKVAARVKAVDGDEQWILAEVVSYSHATNKYEVDDIREEGKERHTLSRRRVIPLPQWKANPETDPEALFQKEQLVLALYPQTTCFYRALIHAPPQRPQDDYSVLFEDTSYADGYSPPLNVAQRYVVACKEPKKK [D196R] | disrupting interaction

Variants of: B1
Conditions: with h31_human H3C1, P68431
Remark: another data set of the same source

Variant | effect of a mutation on the interaction
MALVSADSRIAELLTELHQLIKQTQEERSRSEHNLVNIQKTHERMQTENKISPYYRTKLRGLYTTAKADAEAECNILRKALDKIAEIKSLLEERRIAAKIAGLYNDSEPPRKTMRRGVLMTLLQQSAMTLPLWIGKPGDKPPPLCGAIPASGDYVARPGDKVAARVKAVDGDEQWILAEVVSYSHATNKYEVDDIDEEGKERHTLSRRRVIPLPQWKANPETDPEALFQKEQLVLALYPQTTCFARALIHAPPQRPQDDYSVLFEDTSYADGYSPPLNVAQRYVVACKEPKKK [Y245A] | disrupting interaction

Variants of: B1
Conditions: with h31_human H3C1, P68431
Remark: another data set of the same source

Variant | effect of a mutation on the interaction
MALVSADSRIAELLTELHQLIKQTQEERSRSEHNLVNIQKTHERMQTENKISPYYRTKLRGLYTTAKADAEAECNILRKALDKIAEIKSLLEERRIAAKIAGLYNDSEPPRKTMRRGVLMTLLQQSAMTLPLWIGKPGDKPPPLCGAIPASGDYVARPGDKVAARVKAVDGDEQWILAEVVSYSHATNKYEVDDIDEEGKERHTLSRRRVIPLPQWKANPETDPEALFQKEQLVLALAPQTTCFYRALIHAPPQRPQDDYSVLFEDTSYADGYSPPLNVAQRYVVACKEPKKK [Y238A] | decreasing interaction

Variants of: B1
Conditions: with h31_human H3C1, P68431
Remark: another data set of the same source

Variant | effect of a mutation on the interaction
MALVSADSRIAELLTELHQLIKQTQEERSRSEHNLVNIQKTHERMQTENKISPYYRTKLRGLYTTAKADAEAECNILRKALDKIAEIKSLLEERRIAAKIAGLYNDSEPPRKTMRRGVLMTLLQQSAMTLPLWIGKPGDKPPPLCGAIPASGDYVARPGDKVAARVKAVDGDEQWILAEVVSYSHATNKYEVDDIDEEGKERHTLSRRRVIPLPQWKANPETDPEALFQKEQLVLALYPATTCFYRALIHAPPQRPQDDYSVLFEDTSYADGYSPPLNVAQRYVVACKEPKKK [Q240A] | decreasing interaction

Variants of: B1
Conditions: with h31_human H3C1, P68431
Remark: another data set of the same source

Variant | effect of a mutation on the interaction
MALVSADSRIAELLTELHQLIKQTQEERSRSEHNLVNIQKTHERMQTENKISPYYRTKLRGLYTTAKADAEAECNILRKALDKIAEIKSLLEERRIAAKIAGLYNDSEPPRKTMRRGVLMTLLQQSAMTLPLWIGKPGDKPPPLCGAIPASGDYVARPGDKVAARVKAVDGDEQWILAEVVSYSHATNKYEVDDIDEEGKERHTLSRRRVIPLPQWKANPETDPEALFQKEQLVLALYPQTACFYRALIHAPPQRPQDDYSVLFEDTSYADGYSPPLNVAQRYVVACKEPKKK [T242A] | decreasing interaction

Variants of: B1
Conditions: with h31_human H3C1, P68431
Remark: another data set of the same source

Variant | effect of a mutation on the interaction
MALVSADSRIAELLTELHQLIKQTQEERSRSEHNLVNIQKTHERMQTENKISPYYRTKLRGLYTTAKADAEAECNILRKALDKIAEIKSLLEERRIAAKIAGLYNDSEPPRKTMRRGVLMTLLQQSAMTLPLWIGKPGDKPPPLCGAIPASGDYVARPGDKVAARVKAVDGDEQWILAEVVSYSHATNKYEVDDIDEEGKERHTLSRRRVIPLPQWKANPETDPEALFQKEQLVLALYPQTTCFYRALIHAPPQRPQDDYSVLAEDTSYADGYSPPLNVAQRYVVACKEPKKK [F264A] | decreasing interaction

Variants of: B1
Conditions: with h31_human H3C1, P68431
Remark: another data set of the same source

Variant | effect of a mutation on the interaction
MALVSADSRIAELLTELHQLIKQTQEERSRSEHNLVNIQKTHERMQTENKISPYYRTKLRGLYTTAKADAEAECNILRKALDKIAEIKSLLEERRIAAKIAGLYNDSEPPRKTMRRGVLMTLLQQSAMTLPLWIGKPGDKPPPLCGAIPASGDYVARPGDKVAARVKAVDGDEQWILAEVVSYSHATNKYEVDDIDEEGKERHTLSRRRVIPLPQWKANPETDPEALFQKEQLVLALYPQTTCFYRALIHAPPQRPQDDYSVLFEATSYADGYSPPLNVAQRYVVACKEPKKK [D266A] | decreasing interaction

Source: IntAct's records for PubMed 21685874
